In publication PMC5874046, “Interaction of HuDA and PABP at 5'UTR of mouse insulin2 regulates insulin biosynthesis”:

Assays:
His-HuD D [1] = molecular target: T1, His-HuD D (mouse, UniProt Q61701-10 1-371); assay: competition; competitor; similar to L at low excess, differential at high excess; EMSA: 6% native PAGE, 0.5x TBE, 4°C (binding buffer as in cited work); biotin pull-down: 5 mM Tris pH 7.5, 15 mM KCl, 5 mM MgCl2, 0.25 mM DTT, 10% glycerol, 20; conditions: protein: recombinant; tags: His; m-fold predicted structure
His-HuD A [2] = molecular target: T2, His-HuD A (mouse, UniProt Q61701 1-385); assay: competition; competitor against labeled Ins2L; similar to L at low excess, differential at high excess; EMSA: 6% native PAGE, 0.5x TBE, 4°C (binding buffer as in cited work); biotin pull-down: 5 mM Tris pH 7.5, 15 mM KCl, 5 mM MgCl2, 0.25 mM DTT, 10% glycerol, 20; conditions: protein: recombinant; tags: His; m-fold predicted structure
His-HuD D [3] = molecular target: T1, His-HuD D; assay: EMSA; EMSA: 6% native PAGE, 0.5x TBE, 4°C (binding buffer as in cited work); biotin pull-down: 5 mM Tris pH 7.5, 15 mM KCl, 5 mM MgCl2, 0.25 mM DTT, 10% glycerol, 20; conditions: protein: recombinant; tags: His; label: radiolabel (probe); m-fold predicted structure
GST-HuD B = GST-HuD B (mouse, UniProt Q61701-4 1-380); assay: as above; conditions: protein: recombinant; tags: GST; label: radiolabel (probe); m-fold predicted structure
His-HuD A [4] = molecular target: T2, His-HuD A; assay: as above; conditions: protein: recombinant; tags: His; label: radiolabel (probe); m-fold predicted structure
His-HuD B = His-HuD B (mouse, UniProt Q61701-4 1-380); assay: as above; conditions: protein: recombinant; tags: His; label: radiolabel (probe); m-fold predicted structure
His-HuD D [5] = molecular target: T1, His-HuD D; assay: competition; competitor; EMSA: 6% native PAGE, 0.5x TBE, 4°C (binding buffer as in cited work); biotin pull-down: 5 mM Tris pH 7.5, 15 mM KCl, 5 mM MgCl2, 0.25 mM DTT, 10% glycerol, 20; conditions: protein: recombinant, tags: His
His-HuD A [6] = molecular target: T2, His-HuD A; assay: competition; competitor against labeled Ins2L; EMSA: 6% native PAGE, 0.5x TBE, 4°C (binding buffer as in cited work); biotin pull-down: 5 mM Tris pH 7.5, 15 mM KCl, 5 mM MgCl2, 0.25 mM DTT, 10% glycerol, 20; conditions: protein: recombinant, tags: His

T1 sequence (Q61701 other isoform, or with tags, fused parts or gaps): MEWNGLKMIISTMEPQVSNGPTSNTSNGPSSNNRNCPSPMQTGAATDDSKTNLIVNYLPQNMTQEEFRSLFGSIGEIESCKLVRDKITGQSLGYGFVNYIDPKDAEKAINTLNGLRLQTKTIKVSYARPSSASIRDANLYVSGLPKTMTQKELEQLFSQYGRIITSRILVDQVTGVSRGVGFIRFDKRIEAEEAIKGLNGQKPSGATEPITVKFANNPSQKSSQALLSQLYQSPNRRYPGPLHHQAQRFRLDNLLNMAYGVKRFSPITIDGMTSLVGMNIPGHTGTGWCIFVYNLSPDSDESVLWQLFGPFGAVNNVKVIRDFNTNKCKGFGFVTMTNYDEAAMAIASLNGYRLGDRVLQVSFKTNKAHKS
T2 sequence (Q61701 whole entry): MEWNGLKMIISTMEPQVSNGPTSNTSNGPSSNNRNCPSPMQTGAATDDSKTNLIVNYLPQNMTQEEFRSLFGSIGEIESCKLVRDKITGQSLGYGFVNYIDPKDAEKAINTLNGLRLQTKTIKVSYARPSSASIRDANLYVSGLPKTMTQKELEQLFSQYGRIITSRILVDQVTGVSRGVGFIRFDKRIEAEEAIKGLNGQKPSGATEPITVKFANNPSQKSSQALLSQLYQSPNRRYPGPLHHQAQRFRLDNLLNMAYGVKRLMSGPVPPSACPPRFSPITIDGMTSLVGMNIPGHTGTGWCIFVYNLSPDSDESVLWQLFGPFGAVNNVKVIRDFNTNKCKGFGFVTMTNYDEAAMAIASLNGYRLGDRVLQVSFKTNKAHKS
His-HuD B, sequence (Q61701 other isoform, or with tags, fused parts or gaps): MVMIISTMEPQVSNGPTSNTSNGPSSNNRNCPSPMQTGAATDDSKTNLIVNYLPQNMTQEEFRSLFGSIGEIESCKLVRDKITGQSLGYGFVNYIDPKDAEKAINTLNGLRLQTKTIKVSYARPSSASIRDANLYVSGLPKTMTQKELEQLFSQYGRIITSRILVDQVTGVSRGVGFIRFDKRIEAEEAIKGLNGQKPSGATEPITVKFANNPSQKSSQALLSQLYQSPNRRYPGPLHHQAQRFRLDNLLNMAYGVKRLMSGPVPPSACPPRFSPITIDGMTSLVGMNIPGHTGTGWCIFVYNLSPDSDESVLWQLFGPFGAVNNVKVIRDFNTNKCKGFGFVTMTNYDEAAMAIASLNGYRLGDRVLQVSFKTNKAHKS

B1: Ins2S 5'UTR (S) (structured_RNA)
RNA: GGGAGCCCUAAGUGAUCCGCUACAAUCAAAAACCAUCAGCAAGCAGGAAGGUUAUUGUUUCAAC
His-HuD D [1]
  binding result: binds
His-HuD A [2]
  binding result: binds

B2: Ins2L 5'UTR (L) (structured_RNA)
RNA: GGGAGCCCUAAGUGAUCCGCUACAAUCAAAAACCAUCAGCAAGCAGGAAGCCUAUCUUCCAGGUUAUUGUUUCAAC
His-HuD D [3]
  binding result: binds
GST-HuD B
  binding result: no binding
His-HuD A [4]
  binding result: binds
His-HuD B
  binding result: no binding

B3: L2 (ssRNA)
RNA: GGGUACAAUCAAAAACCAUCAGCAA
His-HuD D [5]; label: radiolabel (probe)
  binding result: binds
His-HuD A [6]; label: radiolabel (probe)
  binding result: binds

B4: L4 (ssRNA)
RNA: GGGUCUUCCAGGUUAUUGUUUCAAC
His-HuD D [5]
  binding result: binds
His-HuD A [6]
  binding result: binds
